Data published in US20080148430.
Numbering of substitutions follows the chain as printed.

How the values were obtained:
AtPhos32 (At5g54430) = molecular target: T1, AtPhos32 (At5g54430)
T1 chain: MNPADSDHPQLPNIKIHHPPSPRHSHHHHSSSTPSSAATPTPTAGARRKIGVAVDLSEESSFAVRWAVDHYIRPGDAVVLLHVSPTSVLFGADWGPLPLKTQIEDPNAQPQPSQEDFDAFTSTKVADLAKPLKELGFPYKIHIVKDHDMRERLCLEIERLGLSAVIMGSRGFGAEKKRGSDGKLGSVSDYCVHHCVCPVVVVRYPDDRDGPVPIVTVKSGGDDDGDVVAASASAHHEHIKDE

AtPhos34 (At4g27320) = molecular target: T2, AtPhos34 (At4g27320)
T2 chain: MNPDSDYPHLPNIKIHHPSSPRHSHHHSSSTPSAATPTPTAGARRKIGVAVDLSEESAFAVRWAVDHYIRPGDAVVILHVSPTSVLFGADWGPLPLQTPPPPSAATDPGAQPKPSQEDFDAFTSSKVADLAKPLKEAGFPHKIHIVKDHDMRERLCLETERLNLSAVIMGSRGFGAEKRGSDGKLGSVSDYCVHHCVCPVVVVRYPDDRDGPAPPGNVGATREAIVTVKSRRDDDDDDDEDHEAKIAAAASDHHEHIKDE

[1] = molecular target: T3, GST fusion containing the first 46 amino acids of Phos32
T3 chain: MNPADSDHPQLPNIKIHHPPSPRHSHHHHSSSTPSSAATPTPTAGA

[2] = molecular target: T4, Myelin Basic Protein (MBP) Bovine P02687
T4 chain: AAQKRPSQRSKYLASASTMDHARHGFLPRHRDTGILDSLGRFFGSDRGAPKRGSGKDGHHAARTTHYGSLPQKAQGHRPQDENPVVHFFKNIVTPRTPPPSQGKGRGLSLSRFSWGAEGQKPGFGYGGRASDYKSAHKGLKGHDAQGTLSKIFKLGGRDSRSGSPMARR

[3] = molecular target: T5, Phos32 with serine S21 mutated to alanine
T5 chain: T1 chain with S21A

[4] = molecular target: T6, Phos32 with serine S21 mutated to aspartic acid
T6 chain: T1 chain with S21D

B1: AtMPK3 (protein)
chain: MNTGGGQYTDFPAVETHGGQFISYDIFGSLFEITSKYRPPIIPIGRGAYGIVCSVLDTETNELVAMKKIANAFDNHMDAKRTLREIKLLRHLDHENIIAIRDVVPPPLRRQFSDVYISTELMDTDLHQIIRSNQSLSEEHCQYFLYQLLRGLKYIHSANIIHRDLKPSNLLLNANCDLKICDFGLARPTSENDFMTEYVVTRWYRAPELLLNSSDYTAAIDVWSVGCIFMELMNRKPLFPGKDHVHQMRLLTELLGTPTESDLGFTHNEDAKRYIRQLPNFPRQPLAKLFSHVNPMAIDLVDRMLTFDPNRRITVEQALNHQYLAKLHDPNDEPICQKPFSFEFEQQPLDEEQIKEMIYQEAIALNPTYG
in-solution kinase assays with 32P-gammaATP (AtPhos32 (At5g54430)): we found that these proteins are excellent MAP kinase substrates
level of phosphorylation in an in vitro kinase assay (AtPhos32 (At5g54430)): Phos32 is at least as good if not a better substrate than MBP for this MAP Kinase
in-solution kinase assays with 32P-gammaATP (AtPhos34 (At4g27320)): we found that these proteins are excellent MAP kinase substrates
in vitro kinase assay [1]: the first 46 amino acids of Phos32 protein are sufficient for MAP kinase recognition and phosphorylation
level of phosphorylation in an in vitro kinase assay [2]: we used 2 µg of MBP in an in vitro kinase assay with AtMPK3 and compared the level of phosphorylation
in vitro kinase assay [3]: mutation of this residue to alanine or aspartic acid abolishes phosphorylation by MAPKs
in vitro kinase assay [4]: mutation of this residue to alanine or aspartic acid abolishes phosphorylation by MAPKs

B2: AtMPK6 (protein)
chain: MDGGSGQPAADTEMTEAPGGFPAAAPSPQMPGIENIPATLSHGGRFIQYNIFGNIFEVTAKYKPPIMPIGKGAYGIVCSAMNSETNESVAIKKIANAFDNKIDAKRTLREIKLLRHMDHENIVAIRDIIPPPLRNAFNDVYIAYELMDTDLHQIIRSNQALSEEHCQYFLYQILRGLKYIHSANVLHRDLKPSNLLLNANCDLKICDFGLARVTSESDFMTEYVVTRWYRAPELLLNSSDYTAAIDVWSVGCIFMELMDRKPLFPGRDHVHQLRLLMELIGTPSEEELEFLNENAKRYIRQLPPYPRQSITDKFPTVHPLAIDLIEKMLTFDPRRRITVLDALAHPYLNSLHDISDEPECTIPFNFDFENHALSEEQMKELIYREALAFNPEYQQ
in-solution kinase assays with 32P-gammaATP (AtPhos32 (At5g54430)): we found that these proteins are excellent MAP kinase substrates
in-solution kinase assays with 32P-gammaATP (AtPhos34 (At4g27320)): we found that these proteins are excellent MAP kinase substrates
in vitro kinase assay [1]: the first 46 amino acids of Phos32 protein are sufficient for MAP kinase recognition and phosphorylation
in vitro kinase assay [3]: mutation of this residue to alanine or aspartic acid abolishes phosphorylation by MAPKs
in vitro kinase assay [4]: mutation of this residue to alanine or aspartic acid abolishes phosphorylation by MAPKs
